Test results: article doi:10.1101/2021.01.25.428026

Legend:
[1] = molecular target: recombinant DJ-1 C46A mutant (human) (UniProt Q99497); assay: non-reducing SDS-PAGE
[2] = molecular target: recombinant DJ-1 C53A mutant (human) (UniProt Q99497); assay: non-reducing SDS-PAGE

stoichiometry N [1] | stoichiometry N [2] | Substance
3 |  | recombinant DJ-1 C46A mutant (from UniProt Q99497 1-189) (natural protein)
 | 3 | recombinant DJ-1 C53A mutant (from UniProt Q99497 1-189) (natural protein)
